From patent US20140087995A1 (published 2014)
Numbered stars: 1 amine (or outer) side, 2 acyl side, 3 side chain; on linkers, the order of the positions; unused ones are H or OH. Bridge positions count the residues as written; N and C are the ends. Side chains are listed from the residue outwards. Ends that are not written are not given here. * marks the point of attachment. C20 diacid = O=C(O)CCCCCCCCCCCCCCCCCCC(=O)*; γGlu = O=C(O)[C@H](CCC(=O)[*:2])N[*:1]; AEEA = NCCOCCOCC(=O)O

T1: human amylin receptor (human, UniProt P30988 25-474; O60896 24-148, limits assumed)
T1 construct: whole, on cells; Calcitonin receptor plus RAMP-3 gives the amylin 3(a) receptor; membranes of Amylin 3(a)/CRE-luc cells were used; also called hAmylin-R; hAmylinR
T1 sequence (looked up) 1: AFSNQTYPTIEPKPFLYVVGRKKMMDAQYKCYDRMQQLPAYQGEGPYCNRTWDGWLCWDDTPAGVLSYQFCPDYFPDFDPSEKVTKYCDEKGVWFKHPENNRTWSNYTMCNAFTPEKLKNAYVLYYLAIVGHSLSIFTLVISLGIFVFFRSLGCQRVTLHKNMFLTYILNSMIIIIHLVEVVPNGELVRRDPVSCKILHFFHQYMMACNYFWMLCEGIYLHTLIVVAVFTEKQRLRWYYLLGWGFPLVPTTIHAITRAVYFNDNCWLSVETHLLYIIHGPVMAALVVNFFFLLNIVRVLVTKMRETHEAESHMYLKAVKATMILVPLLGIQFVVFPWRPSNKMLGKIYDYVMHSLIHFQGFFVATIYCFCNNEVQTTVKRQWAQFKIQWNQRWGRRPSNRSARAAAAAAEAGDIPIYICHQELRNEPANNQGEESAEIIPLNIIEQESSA
T1 sequence (looked up) 2: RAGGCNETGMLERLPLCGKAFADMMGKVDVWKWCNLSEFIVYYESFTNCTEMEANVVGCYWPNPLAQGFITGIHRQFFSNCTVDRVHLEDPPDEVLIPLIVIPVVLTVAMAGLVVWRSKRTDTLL

B1: N^ε1-[2-[2-[2-[[(4S)-4-carboxy-4-(19-carboxynonadecanoylamino)butanoyl]amino]ethoxy]ethoxy]acetyl]-[Arg17,Pro21,Pro27,Arg34]-h-amylin (peptide)
peptide: K([AEEA-γGlu-C20 diacid])CNTATCATQRLANFLRHSSPNFGAIPSSTNVGRNTY-NH2
modifications: disulfide 2-7; N-terminus assumed
SMILES: CC[C@H](C)[C@H](NC(=O)[C@H](C)NC(=O)CNC(=O)[C@H](Cc1ccccc1)NC(=O)[C@H](CC(N)=O)NC(=O)[C@@H]1CCCN1C(=O)[C@H](CO)NC(=O)[C@H](CO)NC(=O)[C@H](Cc1c[nH]cn1)NC(=O)[C@H](CCCNC(=N)N)NC(=O)[C@H](CC(C)C)NC(=O)[C@H](Cc1ccccc1)NC(=O)[C@H](CC(N)=O)NC(=O)[C@H](C)NC(=O)[C@H](CC(C)C)NC(=O)[C@H](CCCNC(=N)N)NC(=O)[C@H](CCC(N)=O)NC(=O)[C@@H](NC(=O)[C@H](C)NC(=O)[C@@H]1CSSC[C@H](NC(=O)[C@@H](N)CCCCNC(=O)COCCOCCNC(=O)CC[C@H](NC(=O)CCCCCCCCCCCCCCCCCCC(=O)O)C(=O)O)C(=O)N[C@@H](CC(N)=O)C(=O)N[C@@H]([C@@H](C)O)C(=O)N[C@@H](C)C(=O)N[C@@H]([C@@H](C)O)C(=O)N1)[C@@H](C)O)C(=O)N1CCC[C@H]1C(=O)N[C@@H](CO)C(=O)N[C@@H](CO)C(=O)N[C@H](C(=O)N[C@@H](CC(N)=O)C(=O)N[C@H](C(=O)NCC(=O)N[C@@H](CCCNC(=N)N)C(=O)N[C@@H](CC(N)=O)C(=O)N[C@H](C(=O)N[C@@H](Cc1ccc(O)cc1)C(N)=O)[C@@H](C)O)C(C)C)[C@@H](C)O
notes: also called 17R, 21P, 27P, 34R
B2: N^ε1-[2-[2-[2-[[(4S)-4-carboxy-4-(19-carboxynonadecanoylamino)butanoyl]amino]ethoxy]ethoxy]acetyl]-[Arg17,Pro21,Pro27,Pro28,Pro34]-h-amylin (peptide)
peptide: K([AEEA-γGlu-C20 diacid])CNTATCATQRLANFLRHSSPNFGAIPPSTNVGPNTY-NH2
modifications: disulfide 2-7; N-terminus assumed
SMILES: CC[C@H](C)[C@H](NC(=O)[C@H](C)NC(=O)CNC(=O)[C@H](Cc1ccccc1)NC(=O)[C@H](CC(N)=O)NC(=O)[C@@H]1CCCN1C(=O)[C@H](CO)NC(=O)[C@H](CO)NC(=O)[C@H](Cc1c[nH]cn1)NC(=O)[C@H](CCCNC(=N)N)NC(=O)[C@H](CC(C)C)NC(=O)[C@H](Cc1ccccc1)NC(=O)[C@H](CC(N)=O)NC(=O)[C@H](C)NC(=O)[C@H](CC(C)C)NC(=O)[C@H](CCCNC(=N)N)NC(=O)[C@H](CCC(N)=O)NC(=O)[C@@H](NC(=O)[C@H](C)NC(=O)[C@@H]1CSSC[C@H](NC(=O)[C@@H](N)CCCCNC(=O)COCCOCCNC(=O)CC[C@H](NC(=O)CCCCCCCCCCCCCCCCCCC(=O)O)C(=O)O)C(=O)N[C@@H](CC(N)=O)C(=O)N[C@@H]([C@@H](C)O)C(=O)N[C@@H](C)C(=O)N[C@@H]([C@@H](C)O)C(=O)N1)[C@@H](C)O)C(=O)N1CCC[C@H]1C(=O)N1CCC[C@H]1C(=O)N[C@@H](CO)C(=O)N[C@H](C(=O)N[C@@H](CC(N)=O)C(=O)N[C@H](C(=O)NCC(=O)N1CCC[C@H]1C(=O)N[C@@H](CC(N)=O)C(=O)N[C@H](C(=O)N[C@@H](Cc1ccc(O)cc1)C(N)=O)[C@@H](C)O)C(C)C)[C@@H](C)O
notes: also called 17R, 21P, 27P, 28P, 34P
B3: N^ε1-[2-[2-[2-[[(4S)-4-carboxy-4-(19-carboxynonadecanoylamino)butanoyl]amino]ethoxy]ethoxy]acetyl]-[Arg17,Pro21,Pro27,Glu35]-h-amylin (peptide)
peptide: K([AEEA-γGlu-C20 diacid])CNTATCATQRLANFLRHSSPNFGAIPSSTNVGSETY-NH2
modifications: disulfide 2-7; N-terminus assumed
SMILES: CC[C@H](C)[C@H](NC(=O)[C@H](C)NC(=O)CNC(=O)[C@H](Cc1ccccc1)NC(=O)[C@H](CC(N)=O)NC(=O)[C@@H]1CCCN1C(=O)[C@H](CO)NC(=O)[C@H](CO)NC(=O)[C@H](Cc1c[nH]cn1)NC(=O)[C@H](CCCNC(=N)N)NC(=O)[C@H](CC(C)C)NC(=O)[C@H](Cc1ccccc1)NC(=O)[C@H](CC(N)=O)NC(=O)[C@H](C)NC(=O)[C@H](CC(C)C)NC(=O)[C@H](CCCNC(=N)N)NC(=O)[C@H](CCC(N)=O)NC(=O)[C@@H](NC(=O)[C@H](C)NC(=O)[C@@H]1CSSC[C@H](NC(=O)[C@@H](N)CCCCNC(=O)COCCOCCNC(=O)CC[C@H](NC(=O)CCCCCCCCCCCCCCCCCCC(=O)O)C(=O)O)C(=O)N[C@@H](CC(N)=O)C(=O)N[C@@H]([C@@H](C)O)C(=O)N[C@@H](C)C(=O)N[C@@H]([C@@H](C)O)C(=O)N1)[C@@H](C)O)C(=O)N1CCC[C@H]1C(=O)N[C@@H](CO)C(=O)N[C@@H](CO)C(=O)N[C@H](C(=O)N[C@@H](CC(N)=O)C(=O)N[C@H](C(=O)NCC(=O)N[C@@H](CO)C(=O)N[C@@H](CCC(=O)O)C(=O)N[C@H](C(=O)N[C@@H](Cc1ccc(O)cc1)C(N)=O)[C@@H](C)O)C(C)C)[C@@H](C)O
notes: also called 17R, 21P, 27P, 35E
B4: N^ε1-[2-[2-[2-[[(4S)-4-carboxy-4-(19-carboxynonadecanoylamino)butanoyl]amino]ethoxy]ethoxy]acetyl]-[Arg17,Pro21,Pro27,Pro28,Pro31]-h-amylin (peptide)
peptide: K([AEEA-γGlu-C20 diacid])CNTATCATQRLANFLRHSSPNFGAIPPSTPVGSNTY-NH2
modifications: disulfide 2-7
notes: also called 17R, 21P, 27P, 28P, 31P
B5: N^ε1-[2-[2-[2-[[(4S)-4-carboxy-4-(19-carboxynonadecanoylamino)butanoyl]amino]ethoxy]ethoxy]acetyl]-[Arg17,Pro21,Pro27,Arg35]-h-amylin (peptide)
peptide: K([AEEA-γGlu-C20 diacid])CNTATCATQRLANFLRHSSPNFGAIPSSTNVGSRTY-NH2
modifications: disulfide 2-7; N-terminus assumed
SMILES: CC[C@H](C)[C@H](NC(=O)[C@H](C)NC(=O)CNC(=O)[C@H](Cc1ccccc1)NC(=O)[C@H](CC(N)=O)NC(=O)[C@@H]1CCCN1C(=O)[C@H](CO)NC(=O)[C@H](CO)NC(=O)[C@H](Cc1c[nH]cn1)NC(=O)[C@H](CCCNC(=N)N)NC(=O)[C@H](CC(C)C)NC(=O)[C@H](Cc1ccccc1)NC(=O)[C@H](CC(N)=O)NC(=O)[C@H](C)NC(=O)[C@H](CC(C)C)NC(=O)[C@H](CCCNC(=N)N)NC(=O)[C@H](CCC(N)=O)NC(=O)[C@@H](NC(=O)[C@H](C)NC(=O)[C@@H]1CSSC[C@H](NC(=O)[C@@H](N)CCCCNC(=O)COCCOCCNC(=O)CC[C@H](NC(=O)CCCCCCCCCCCCCCCCCCC(=O)O)C(=O)O)C(=O)N[C@@H](CC(N)=O)C(=O)N[C@@H]([C@@H](C)O)C(=O)N[C@@H](C)C(=O)N[C@@H]([C@@H](C)O)C(=O)N1)[C@@H](C)O)C(=O)N1CCC[C@H]1C(=O)N[C@@H](CO)C(=O)N[C@@H](CO)C(=O)N[C@H](C(=O)N[C@@H](CC(N)=O)C(=O)N[C@H](C(=O)NCC(=O)N[C@@H](CO)C(=O)N[C@@H](CCCNC(=N)N)C(=O)N[C@H](C(=O)N[C@@H](Cc1ccc(O)cc1)C(N)=O)[C@@H](C)O)C(C)C)[C@@H](C)O
notes: also called 17R, 21P, 27P, 35R
B6: N^ε1-[2-[2-[2-[[(4S)-4-carboxy-4-(19-carboxynonadecanoylamino)butanoyl]amino]ethoxy]ethoxy]acetyl]-[Arg17,Pro21,Pro27,His34]-h-amylin (peptide)
peptide: K([AEEA-γGlu-C20 diacid])CNTATCATQRLANFLRHSSPNFGAIPSSTNVGHNTY-NH2
modifications: disulfide 2-7; N-terminus assumed
SMILES: CC[C@H](C)[C@H](NC(=O)[C@H](C)NC(=O)CNC(=O)[C@H](Cc1ccccc1)NC(=O)[C@H](CC(N)=O)NC(=O)[C@@H]1CCCN1C(=O)[C@H](CO)NC(=O)[C@H](CO)NC(=O)[C@H](Cc1c[nH]cn1)NC(=O)[C@H](CCCNC(=N)N)NC(=O)[C@H](CC(C)C)NC(=O)[C@H](Cc1ccccc1)NC(=O)[C@H](CC(N)=O)NC(=O)[C@H](C)NC(=O)[C@H](CC(C)C)NC(=O)[C@H](CCCNC(=N)N)NC(=O)[C@H](CCC(N)=O)NC(=O)[C@@H](NC(=O)[C@H](C)NC(=O)[C@@H]1CSSC[C@H](NC(=O)[C@@H](N)CCCCNC(=O)COCCOCCNC(=O)CC[C@H](NC(=O)CCCCCCCCCCCCCCCCCCC(=O)O)C(=O)O)C(=O)N[C@@H](CC(N)=O)C(=O)N[C@@H]([C@@H](C)O)C(=O)N[C@@H](C)C(=O)N[C@@H]([C@@H](C)O)C(=O)N1)[C@@H](C)O)C(=O)N1CCC[C@H]1C(=O)N[C@@H](CO)C(=O)N[C@@H](CO)C(=O)N[C@H](C(=O)N[C@@H](CC(N)=O)C(=O)N[C@H](C(=O)NCC(=O)N[C@@H](Cc1c[nH]cn1)C(=O)N[C@@H](CC(N)=O)C(=O)N[C@H](C(=O)N[C@@H](Cc1ccc(O)cc1)C(N)=O)[C@@H](C)O)C(C)C)[C@@H](C)O
notes: also called 17R, 21P, 27P, 34H
B7: N^ε1-[2-[2-[2-[[(4S)-4-carboxy-4-(19-carboxynonadecanoylamino)butanoyl]amino]ethoxy]ethoxy]acetyl]-[Arg17,Pro21,Pro27,Pro29,Pro31]-h-amylin (peptide)
peptide: K([AEEA-γGlu-C20 diacid])CNTATCATQRLANFLRHSSPNFGAIPSPTPVGSNTY-NH2
modifications: disulfide 2-7; N-terminus assumed
SMILES: CC[C@H](C)[C@H](NC(=O)[C@H](C)NC(=O)CNC(=O)[C@H](Cc1ccccc1)NC(=O)[C@H](CC(N)=O)NC(=O)[C@@H]1CCCN1C(=O)[C@H](CO)NC(=O)[C@H](CO)NC(=O)[C@H](Cc1c[nH]cn1)NC(=O)[C@H](CCCNC(=N)N)NC(=O)[C@H](CC(C)C)NC(=O)[C@H](Cc1ccccc1)NC(=O)[C@H](CC(N)=O)NC(=O)[C@H](C)NC(=O)[C@H](CC(C)C)NC(=O)[C@H](CCCNC(=N)N)NC(=O)[C@H](CCC(N)=O)NC(=O)[C@@H](NC(=O)[C@H](C)NC(=O)[C@@H]1CSSC[C@H](NC(=O)[C@@H](N)CCCCNC(=O)COCCOCCNC(=O)CC[C@H](NC(=O)CCCCCCCCCCCCCCCCCCC(=O)O)C(=O)O)C(=O)N[C@@H](CC(N)=O)C(=O)N[C@@H]([C@@H](C)O)C(=O)N[C@@H](C)C(=O)N[C@@H]([C@@H](C)O)C(=O)N1)[C@@H](C)O)C(=O)N1CCC[C@H]1C(=O)N[C@@H](CO)C(=O)N1CCC[C@H]1C(=O)N[C@H](C(=O)N1CCC[C@H]1C(=O)N[C@H](C(=O)NCC(=O)N[C@@H](CO)C(=O)N[C@@H](CC(N)=O)C(=O)N[C@H](C(=O)N[C@@H](Cc1ccc(O)cc1)C(N)=O)[C@@H](C)O)C(C)C)[C@@H](C)O
notes: also called 17R, 21P, 27P, 29P, 31P

Molecular target: T1, human amylin receptor
Assay: SPA competition binding, displacement of 125I-rat amylin from membranes with human amylin 3(a) receptor (Assay V)
In short: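 Cell membranes were prepared by homogenisation in Na-HEPES/EDTA buffer, pH 7.4, and stored at −80° C. They were then coupled to SPA beads at 35 ng/μL final and exposed to compounds in assay buffer containing CaCl2, MgCl₂, OA and Tween20. After 120 min at 25° C, plates were counted and IC₅₀ derived.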

| IC50 | Binder |
| --- | --- |
| 0.602 nM | B1 |
| 0.042 nM | B2 |
| 0.532 nM | B3 |
| 0.052 nM | B4 |
| 0.249 nM | B5 |
| 0.215 nM | B6 |
| 0.03 nM | B7 |
